Test results: paper PMC7641761

Tests used:
[1] = molecular target: Ku70/Ku80 heterodimer FL (baculovirus);PAXX (human;human?, UniProt P12956;P13010;Q9BUH6 1-609;1-718;1-204, |); assay: EMSA; supershift; MST: 50 mM Tris pH 8.0, 50 mM NaCl, 1 mM DTT, 24 C, 40 nM FAM-RNA; EMSA: 25 mM Hepes-KOH pH 7.5, 50 mM NaCl, 1 mM DTT, 1 mM EDTA, 10% glycerol, 0.1 uM BSA, room temperature, 25 min; conditions: protein: recombinant;recombinant; tags: His (Ku80);GST cleaved; copies: 1;1;2; label: 3'-FAM on lower strand; blunt
[2] = molecular target: T1, Ku70/Ku80 heterodimer FL (baculovirus);XLF (human;human?, UniProt P12956;P13010;Q9H9Q4 1-609;1-718;1-299, |); assay: EMSA; supershift; Ku preparation not stated; MST: 50 mM Tris pH 8.0, 50 mM NaCl, 1 mM DTT, 24 C, 40 nM FAM-RNA; EMSA: 25 mM Hepes-KOH pH 7.5, 50 mM NaCl, 1 mM DTT, 1 mM EDTA, 10% glycerol, 0.1 uM BSA, room temperature, 25 min; conditions: protein: recombinant;recombinant; tags: His (Ku80);; copies: 1;1;2; label: 3'-FAM on lower strand; blunt
[3] = molecular target: T2, Ku70/Ku80 heterodimer FL (baculovirus) (human, UniProt P12956;P13010 1-609;1-718); assay: MST; MST: 50 mM Tris pH 8.0, 50 mM NaCl, 1 mM DTT, 24 C, 40 nM FAM-RNA; EMSA: 25 mM Hepes-KOH pH 7.5, 50 mM NaCl, 1 mM DTT, 1 mM EDTA, 10% glycerol, 0.1 uM BSA, room temperature, 25 min; conditions: protein: recombinant, tags: His (Ku80), copies: 1;1, label: 5'-FAM
[4] = molecular target: Ku5D (human, UniProt P12956;P13010 1-609;1-718, T305D;S306D;T307D;S314D;T316D); assay: MST; 20-fold weaker than WT; MST: 50 mM Tris pH 8.0, 50 mM NaCl, 1 mM DTT, 24 C, 40 nM FAM-RNA; EMSA: 25 mM Hepes-KOH pH 7.5, 50 mM NaCl, 1 mM DTT, 1 mM EDTA, 10% glycerol, 0.1 uM BSA, room temperature, 25 min; conditions: protein: recombinant; copies: 1;1; label: 5'-FAM on strand 1; fork; 42-mer/29-mer
[5] = molecular target: T1, Ku70/Ku80 heterodimer FL …; assay: EMSA; supershift; MST: 50 mM Tris pH 8.0, 50 mM NaCl, 1 mM DTT, 24 C, 40 nM FAM-RNA; EMSA: 25 mM Hepes-KOH pH 7.5, 50 mM NaCl, 1 mM DTT, 1 mM EDTA, 10% glycerol, 0.1 uM BSA, room temperature, 25 min; conditions: protein: recombinant;recombinant, tags: His (Ku80);, copies: 1;1;2, label: 5'-FAM
[6] = molecular target: Ku dCTR (human, UniProt P12956;P13010 1-609;1-569); assay: MST; MST: 50 mM Tris pH 8.0, 50 mM NaCl, 1 mM DTT, 24 C, 40 nM FAM-RNA; EMSA: 25 mM Hepes-KOH pH 7.5, 50 mM NaCl, 1 mM DTT, 1 mM EDTA, 10% glycerol, 0.1 uM BSA, room temperature, 25 min; conditions: protein: recombinant; copies: 1;1; label: 5'-FAM; hairpin with bulge
[7] = molecular target: T2, Ku70/Ku80 heterodimer FL (baculovirus); assay: MST; Hill 1.75; MST: 50 mM Tris pH 8.0, 50 mM NaCl, 1 mM DTT, 24 C, 40 nM FAM-RNA; EMSA: 25 mM Hepes-KOH pH 7.5, 50 mM NaCl, 1 mM DTT, 1 mM EDTA, 10% glycerol, 0.1 uM BSA, room temperature, 25 min; conditions: protein: recombinant; tags: His (Ku80); copies: 1;1; label: 5'-FAM; blunt
[8] = molecular target: T2, Ku70/Ku80 heterodimer FL (baculovirus); assay: MST; Hill 1.0; MST: 50 mM Tris pH 8.0, 50 mM NaCl, 1 mM DTT, 24 C, 40 nM FAM-RNA; EMSA: 25 mM Hepes-KOH pH 7.5, 50 mM NaCl, 1 mM DTT, 1 mM EDTA, 10% glycerol, 0.1 uM BSA, room temperature, 25 min; conditions: protein: recombinant; tags: His (Ku80); copies: 1;1; label: 5'-FAM stated for MST RNAs
[9] = molecular target: T2, Ku70/Ku80 heterodimer FL (baculovirus); assay: EMSA; Ku preparation not stated; MST: 50 mM Tris pH 8.0, 50 mM NaCl, 1 mM DTT, 24 C, 40 nM FAM-RNA; EMSA: 25 mM Hepes-KOH pH 7.5, 50 mM NaCl, 1 mM DTT, 1 mM EDTA, 10% glycerol, 0.1 uM BSA, room temperature, 25 min; conditions: protein: recombinant; tags: His (Ku80); copies: 1;1; label: 5'-FAM; G4

T1 sequence (P12956 whole entry, chain 1 of 3): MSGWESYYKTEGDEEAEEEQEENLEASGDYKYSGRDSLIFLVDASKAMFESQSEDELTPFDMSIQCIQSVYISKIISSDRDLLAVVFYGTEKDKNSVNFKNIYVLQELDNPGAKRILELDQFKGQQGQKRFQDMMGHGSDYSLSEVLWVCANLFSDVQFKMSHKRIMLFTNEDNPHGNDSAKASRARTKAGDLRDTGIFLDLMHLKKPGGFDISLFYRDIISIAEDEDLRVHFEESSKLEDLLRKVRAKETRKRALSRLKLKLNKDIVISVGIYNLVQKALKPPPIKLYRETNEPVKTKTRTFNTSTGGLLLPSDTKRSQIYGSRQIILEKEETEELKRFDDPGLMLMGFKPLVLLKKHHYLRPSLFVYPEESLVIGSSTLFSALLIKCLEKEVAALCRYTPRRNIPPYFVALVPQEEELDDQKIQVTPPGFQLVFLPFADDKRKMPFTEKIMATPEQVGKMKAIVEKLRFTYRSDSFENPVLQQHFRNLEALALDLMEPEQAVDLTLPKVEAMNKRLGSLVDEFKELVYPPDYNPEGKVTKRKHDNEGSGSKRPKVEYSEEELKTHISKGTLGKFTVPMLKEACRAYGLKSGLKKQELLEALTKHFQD
T1 sequence (P13010 1-718, chain 2 of 3): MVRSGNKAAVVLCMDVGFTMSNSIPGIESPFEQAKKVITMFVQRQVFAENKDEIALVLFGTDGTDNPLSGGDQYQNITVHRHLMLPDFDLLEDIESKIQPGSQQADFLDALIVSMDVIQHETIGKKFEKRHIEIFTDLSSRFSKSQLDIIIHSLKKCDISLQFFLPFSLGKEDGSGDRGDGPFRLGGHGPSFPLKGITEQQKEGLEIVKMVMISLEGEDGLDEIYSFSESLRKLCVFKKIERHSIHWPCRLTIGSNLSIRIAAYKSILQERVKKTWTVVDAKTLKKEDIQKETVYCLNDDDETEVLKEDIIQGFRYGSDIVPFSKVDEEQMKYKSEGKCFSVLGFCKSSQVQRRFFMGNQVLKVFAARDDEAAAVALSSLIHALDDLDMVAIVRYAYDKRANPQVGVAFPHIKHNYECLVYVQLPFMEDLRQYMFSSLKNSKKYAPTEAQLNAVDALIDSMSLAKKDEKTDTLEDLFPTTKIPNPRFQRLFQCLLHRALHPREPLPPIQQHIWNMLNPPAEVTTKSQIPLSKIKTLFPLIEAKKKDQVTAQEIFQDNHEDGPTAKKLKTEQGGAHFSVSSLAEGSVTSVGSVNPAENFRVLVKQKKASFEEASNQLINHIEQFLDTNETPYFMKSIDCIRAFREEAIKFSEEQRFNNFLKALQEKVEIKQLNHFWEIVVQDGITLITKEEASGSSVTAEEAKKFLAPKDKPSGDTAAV
T1 sequence (Q9H9Q4 whole entry, chain 3 of 3): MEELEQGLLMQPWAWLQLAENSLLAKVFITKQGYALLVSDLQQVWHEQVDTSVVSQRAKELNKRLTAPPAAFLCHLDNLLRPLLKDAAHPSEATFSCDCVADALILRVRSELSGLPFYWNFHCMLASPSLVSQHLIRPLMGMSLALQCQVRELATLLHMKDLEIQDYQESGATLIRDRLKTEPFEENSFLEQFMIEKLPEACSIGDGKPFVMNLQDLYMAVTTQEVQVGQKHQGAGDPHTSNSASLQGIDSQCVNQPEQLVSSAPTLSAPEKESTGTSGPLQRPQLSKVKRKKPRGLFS
T2 sequence (P12956 whole entry, chain 1 of 2): as the sequence (P12956 whole entry, chain 1 of 3) above
T2 sequence (P13010 1-718, chain 2 of 2): as the sequence (P13010 1-718, chain 2 of 3) above
Ku5D, sequence (P12956 whole entry T305D/S306D/T307D/S314D/T316D, chain 1 of 2): as the sequence (P12956 whole entry, chain 1 of 3) above, with T305D, S306D, T307D, S314D, T316D counted along it
Ku5D, sequence (P13010 1-718, chain 2 of 2): as the sequence (P13010 1-718, chain 2 of 3) above
Ku dCTR, sequence (P12956 whole entry, chain 1 of 2): as the sequence (P12956 whole entry, chain 1 of 3) above
Ku dCTR, sequence (P13010 1-569, chain 2 of 2): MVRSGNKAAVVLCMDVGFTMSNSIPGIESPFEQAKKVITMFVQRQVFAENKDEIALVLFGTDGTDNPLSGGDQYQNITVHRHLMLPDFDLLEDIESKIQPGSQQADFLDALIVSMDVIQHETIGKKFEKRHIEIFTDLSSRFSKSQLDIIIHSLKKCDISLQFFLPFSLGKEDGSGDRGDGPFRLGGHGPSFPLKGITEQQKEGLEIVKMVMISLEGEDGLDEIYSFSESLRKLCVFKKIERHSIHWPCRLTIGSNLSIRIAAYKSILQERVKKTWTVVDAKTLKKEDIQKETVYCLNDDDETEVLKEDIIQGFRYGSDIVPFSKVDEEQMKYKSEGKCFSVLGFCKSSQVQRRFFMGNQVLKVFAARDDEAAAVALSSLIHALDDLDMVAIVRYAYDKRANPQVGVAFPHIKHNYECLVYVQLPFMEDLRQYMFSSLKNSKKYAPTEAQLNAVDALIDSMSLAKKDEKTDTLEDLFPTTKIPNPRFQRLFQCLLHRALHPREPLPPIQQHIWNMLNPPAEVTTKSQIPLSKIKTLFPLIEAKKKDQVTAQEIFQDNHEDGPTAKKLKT
Ku70/Ku80 heterodimer FL (baculovirus);PAXX, sequence (P12956 whole entry, chain 1 of 3): as the sequence (P12956 whole entry, chain 1 of 3) above
Ku70/Ku80 heterodimer FL (baculovirus);PAXX, sequence (P13010 1-718, chain 2 of 3): as the sequence (P13010 1-718, chain 2 of 3) above
Ku70/Ku80 heterodimer FL (baculovirus);PAXX, sequence (Q9BUH6 whole entry, chain 3 of 3): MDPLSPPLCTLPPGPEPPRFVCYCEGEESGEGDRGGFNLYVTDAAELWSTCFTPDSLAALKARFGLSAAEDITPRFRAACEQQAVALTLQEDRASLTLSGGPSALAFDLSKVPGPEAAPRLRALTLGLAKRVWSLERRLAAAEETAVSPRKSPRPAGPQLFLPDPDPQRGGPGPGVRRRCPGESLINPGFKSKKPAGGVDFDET

B1: 25bp duplex DNA (dsDNA)
DNA 1: AGCATTGACTGGCATCGTAGCATCC
DNA 2: GGATGCTACGATGCCAGTCAATGCT
binding result [1]: binds
binding result [2]: binds

UGACUGGAGGAAGGAGUAUAGAAACUCUUCCUUUUGGCG (structured_RNA) [SL2-BT]
Kd ([3]; hairpin): 6.05 ± 9.4 µM

CCCUCCGUCUCCUUGACUCUGGG (structured_RNA) [SL1]
Kd ([3]; hairpin): 1.69 ± 0.7 µM

UGACUUUUCCUUGCUCAUUUUUUUGAGAAGGAGGUGGCG (structured_RNA) [SL2-LM]
Kd ([3]; hairpin): 1.62 ± 0.47 µM

UAGGGUUAGGGU (structured_RNA) [TERRA G-quadruplex]
Kd ([3]; G4 (multimeric)): 0.43 ± 0.18 µM

B2: Fork substrate (dsDNA)
DNA 1: CGCGCCCAGCTTTCCCAGCTAATAAACTAAAAACTCCTAAGG
DNA 2: CCTTAGGAGTTTTTAGTTTATTGGGCGCG
Kd [4]: ~15 µM

UGACUUUUCCUUGCUCAAUAGAAUGAGAAGGAGGUGGCG (structured_RNA) [SL2]
binding result ([5]; hairpin with bulge): binds
Kd ([3]; hairpin with bulge): 0.9 ± 0.17 µM
Kd [6]: 1.02 ± 0.18 µM

B3: d50 DNA (dsDNA)
DNA 1: CTCTTGGTGATTATGGTTGCAATACATTTAATTTCATTATCAATTAG
DNA 2: CTAATTGATAATGAAATTAAATGTATTGCAACCATAATCACCAAGAG
Kd [7]: 0.019 ± 0.019 µM

B4: LINP1 (1-300) (structured_RNA)
RNA: CCCUCCGUCUCCUUGACUCUGGGUGGGCUGUGUGACUUUUCCUUGCUCAAUAGAAUGAGAAGGAGGUGGCGCACCGGCUACAAGGCUAGACCGGGGGCUCGCAUAUCUCCACUUGCAGCUGCCACUGCCAUUAGAAGAACUUGCUCAGCCAGCUCCUGGGCCCCAGGAAAAGGACAAGUGUCACCCAGAACAGAGCCACCUCCAGCUGCACUCAGCUCCAGAAGCUGGCCCAGCCGGUCCAGUACACCUUUUAAAUAAUGUCCUCUACGUGCCGGUGUGGAAGUAGCCCGGAUGCAAUUG
Kd [8]: 1.92 ± 0.33 µM

AACCGUAGACCCCGUCGACCGUUAUCUCCACUACGUCGGGGGACUGGGA (structured_RNA) [SL3-BT]
Kd ([3]; hairpin): 1.87 ± 0.36 µM

CCUGGGGUAGGAGAGGGUAUGGGGACCAGGGCACU (structured_RNA) [LINP1 GQ1]
binding result ([5]; G4): binds
Kd ([3]; G4): 0.11 ± 0.04 µM

AAGGCUAGACCGGGGGCUCGCAUUUCUUUUUUUGCAGCUGCCACUGCCA (structured_RNA) [SL3-LM]
Kd ([3]; hairpin): 2.37 ± 1.04 µM

AAGGCUAGACCGGGGGCUCGCAUAUCUCCACUUGCAGCUGCCACUGCCA (structured_RNA) [SL3]
binding result ([5]; hairpin with bulge): binds
Kd ([3]; hairpin with bulge): 0.84 ± 0.45 µM

TTAGGGTTAGGGTTAGGGTTAGGG (structured_DNA) [DNA G-quadruplex]
binding result [9]: no binding
